Results reported in patent publication US20150024459A1.

Assays:
[1] = target: IGF-1R on human cancer cell lines (human) (UniProt P08069); experiment: 125I-IGF-1 binding to MCF-7L cells; antibody at 1000 ng/mL
[2] = target: IGF-1R on human cancer cell lines (human) (UniProt P08069); experiment: cell-based or functional assay
[3] = target: IGF-1R on human cancer cell lines (human) (UniProt P08069); experiment: 125I-IGF-1 binding to MCF-7L cells; antibody at 100 ng/mL
[4] = target: IGF-1R and EGP-1 together on MCF-7, DU145 or ME-180 cells (human) (UniProt P08069); experiment: flow cytometry (FACScan), ME-180 cells; control
[5] = target: IGF-1R and EGP-1 together on MCF-7, DU145 or ME-180 cells (human) (UniProt P08069); experiment: flow cytometry (FACScan), DU145 cells; control
[6] = target: IGF-1R and EGP-1 together on MCF-7, DU145 or ME-180 cells (human) (UniProt P08069); experiment: flow cytometry (FACScan), MCF-7 cells; control

Row | % binding of 125I-IGF-1 in the presence of the antibody [1] | maximum growth inhibition, 786-O cells, serum-free with IGF-1 100 ng/mL, MTS, antibody 8 nM [2] | maximum growth inhibition, ACHN cells, serum-free with IGF-1 100 ng/mL, MTS, antibody 200 nM [2] | maximum growth inhibition, Caki-2 cells, serum-free with IGF-1 100 ng/mL, MTS, antibody 8 nM [2] | % binding of 125I-IGF-1 in the presence of the antibody [3] | % Positive [4] | MFI [4] | % Positive [5] | MFI [5] | % Positive [6] | MFI [6] | Substance
1 | 38% | 34% | 48% | 50% | 54% |  |  |  |  |  |  | MAB391 (antibody)
2 |  |  |  |  |  | 1.37% | 1.8 | 1.44% | 2.21 | 2.34% | 1.84 | human IgG (antibody)
